Experimental data published in article PMC11925728, “Homeodomain protein PRRX1 anchors the Ku heterodimers at DNA double-strand breaks to promote nonhomologous end-joining”.

Legend:
His-PRRX1A (His-PA) = His-PRRX1A (His-PA) (UniProt P54821-2 1-217); test: MST; 10 mM Mg2+; Kd only in figure; EMSA: 20 mM Tris-HCl pH 7.4, 10 mM MgCl2, 2.5% glycerol, 0.05% NP-40, 0.1 ug/ul BSA, RT, 200 nM DNA; MST: 20 mM Tris-HCl pH 7.4, 150 mM NaCl, 10 mM MgCl2, 2.5%; details: protein: recombinant; tags: His (pET-28a); label: 3' 6-FAM on strand 1; blunt
Sequence of His-PRRX1A (His-PA) (P54821 other isoform, or with tags, fused parts or gaps): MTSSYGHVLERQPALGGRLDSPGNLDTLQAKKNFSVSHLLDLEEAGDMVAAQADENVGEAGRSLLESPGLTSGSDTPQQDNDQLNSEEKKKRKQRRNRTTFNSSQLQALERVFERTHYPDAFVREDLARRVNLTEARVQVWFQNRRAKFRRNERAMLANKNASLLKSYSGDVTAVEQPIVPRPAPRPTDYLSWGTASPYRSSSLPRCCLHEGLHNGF

MBP-PA R146A = MBP-PA R146A (UniProt P54821-2 1-217, R146A); test: pull-down; dsDNA, blunt inferred; EMSA: 20 mM Tris-HCl pH 7.4, 10 mM MgCl2, 2.5% glycerol, 0.05% NP-40, 0.1 ug/ul BSA, RT, 200 nM DNA; MST: 20 mM Tris-HCl pH 7.4, 150 mM NaCl, 10 mM MgCl2, 2.5%; details: protein: recombinant, tags: N-term MBP, label: 3' biotin on strand 1
Sequence of MBP-PA R146A (P54821 other isoform, or with tags, fused parts or gaps R146A | R146A R146A): as the sequence (P54821 other isoform, or with tags, fused parts or gaps) above, with R146A counted along it

MBP-PA HD = MBP-PA HD (UniProt P54821-2 94-153); test: pull-down; EMSA: 20 mM Tris-HCl pH 7.4, 10 mM MgCl2, 2.5% glycerol, 0.05% NP-40, 0.1 ug/ul BSA, RT, 200 nM DNA; MST: 20 mM Tris-HCl pH 7.4, 150 mM NaCl, 10 mM MgCl2, 2.5%; details: protein: recombinant; tags: N-term MBP; label: 3' biotin on strand 1; blunt
Sequence of MBP-PA HD (P54821 94-153): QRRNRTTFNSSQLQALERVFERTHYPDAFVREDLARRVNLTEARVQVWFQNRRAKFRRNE

MBP-PRRX1A (MBP-PA) = MBP-PRRX1A (MBP-PA) (UniProt P54821-2 1-217); test: as above; details: protein: recombinant, tags: N-term MBP (pMAL-c2X)
Sequence of MBP-PRRX1A (MBP-PA) (P54821 other isoform, or with tags, fused parts or gaps): as the sequence (P54821 other isoform, or with tags, fused parts or gaps) above

MBP-PA NRRMut = MBP-PA NRRMut (UniProt P54821-2 1-217, N144A;R145A;R146A); test: as above; details: protein: recombinant; tags: N-term MBP; label: 3' biotin on strand 1; blunt
Sequence of MBP-PA NRRMut (P54821 other isoform, or with tags, fused parts or gaps N144A;R145A;R146A): as the sequence (P54821 other isoform, or with tags, fused parts or gaps) above, with N144A, R145A, R146A counted along it

B1: MST blunt (Oligo#3-S/#1-A) (dsDNA)
DNA 1: AAGATGTTGTTTACACGAGGGCTCGAGCCCTCGTGTAAACAACATCTTTTTTTG
DNA 2: CAAAAAAAGATGTTGTTTACACGAGGGCTCGAGCCCTCGTGTAAACAACATCTT
Does B1 bind (His-PRRX1A (His-PA))?
Result: binds

B2: blunt dsDNA 54 bp, biotinylated (Oligo#1-S/#1-A) (dsDNA)
DNA 1: B1 DNA 1
DNA 2: B1 DNA 2
Does B2 bind (MBP-PA R146A)?
Result: no binding

Does B2 bind (MBP-PA HD)?
Result: no binding

Does B2 bind (MBP-PRRX1A (MBP-PA); label: 3' biotin on strand 1, blunt)?
Result: binds

Does B2 bind (MBP-PA NRRMut)?
Result: no binding

B3: 3' overhang DNA (Oligo#1-A/#2-S) (dsDNA)
DNA 1: B1 DNA 2
DNA 2: GAGCCCTCGTGTAAACAACATCTTTTTTTG
Does B3 bind (MBP-PRRX1A (MBP-PA); label: 3' biotin on strand 2, 3' overhang 24 nt (strand 1))?
Result: binds

B4: 5' overhang DNA (Oligo#1-S/#2-A) (dsDNA)
DNA 1: B1 DNA 1
DNA 2: CAAAAAAAGATGTTGTTTACACGAGGGCTC
Does B4 bind (MBP-PRRX1A (MBP-PA); label: 3' biotin on strand 1, 5' overhang 24 nt (strand 1))?
Result: binds

Does GAGCCCTCGTGTAAACAACATCTTTTTTTG (ssDNA) [ssDNA Oligo#2-S] bind (MBP-PRRX1A (MBP-PA); label: 3' biotin, single strand)?
Result: no binding
